Assay results reported in patent publication US20250277039A1 (PURDUE RESEARCH FOUNDATION, published 2025).

How the values were obtained:
[1] = target: T1, cPD-L1 on MB49^cPD-L1 cells; assay: flow cytometry of MB49^cPD-L1 cells
T1 construct: also called canine PD-L1 (Flag-cPD-L1) on mouse PD-L1 knockout MB49 cells
T1 chain: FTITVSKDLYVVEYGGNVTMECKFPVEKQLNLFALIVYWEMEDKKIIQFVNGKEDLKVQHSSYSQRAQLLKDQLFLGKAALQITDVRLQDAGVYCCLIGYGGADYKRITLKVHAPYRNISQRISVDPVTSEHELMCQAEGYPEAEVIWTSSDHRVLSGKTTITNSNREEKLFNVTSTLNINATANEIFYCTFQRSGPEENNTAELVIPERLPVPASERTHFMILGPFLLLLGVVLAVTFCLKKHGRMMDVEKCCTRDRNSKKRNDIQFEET
Procedure: (§1) For flow cytometry analysis, MB49 or BT549 cells were washed twice with ice-cold cell staining buffer (Biolegend, San Diego, CA) and stained with cIgG control, or cPD-L1 12C10E4 cIgG or cPD-L1 A12C10E4 cIgG for 1 hour at 4° C. After three washes with staining buffer, cell samples were stained with Alexa Fluor 488-conjugated anti-canine IgG specific secondary antibody for 30 minutes at 4° C. Cell samples were loaded on BD LSRFortessa (BD, Franklin Lakes, NJ) for analysis. Data analysis was performed on FlowJo v9 software (BD). Every hour, green fluorescent signal was measured and quantified by IncuCyte S3 (Sartorius. Goettingen, Germany). The Image analysis was performed according to the manufacturer's protocol.

mPD-L1 on MB49 cells = target: T2, mPD-L1 on MB49 cells (Mus musculus, UniProt Q9EP73); assay: flow cytometry of MB49 parental cells, which stain for mPD-L1 in the left panel
T2 construct: endogenous, membrane-located, on MB49 parental mouse bladder cancer cells; also called endogenous mouse PD-L1 on MB49 parental cells
T2 sequence (Q9EP73 19-290 limits assumed): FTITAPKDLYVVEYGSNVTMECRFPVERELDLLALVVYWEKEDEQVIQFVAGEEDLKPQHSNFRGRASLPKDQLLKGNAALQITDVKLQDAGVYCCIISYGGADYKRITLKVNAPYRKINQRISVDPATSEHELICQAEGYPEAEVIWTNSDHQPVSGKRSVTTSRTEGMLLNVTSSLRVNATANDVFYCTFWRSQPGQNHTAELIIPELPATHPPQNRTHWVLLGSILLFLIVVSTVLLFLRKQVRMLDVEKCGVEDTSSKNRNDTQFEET
Procedure: as §1

[2] = target: T3, His-tagged canine PD-L1 protein (6X His tagged extracellular domain of cPD-L1) (canine, UniProt E2RKZ5 19-236); assay: cell-free ELISA-based binding assay on His-tagged extracellular domain of cPD-L1, bound antibody as OD450
T3 construct: it is treated here as the same construct; also called cPD-L1-His; canine PD-L1-His
T3 sequence: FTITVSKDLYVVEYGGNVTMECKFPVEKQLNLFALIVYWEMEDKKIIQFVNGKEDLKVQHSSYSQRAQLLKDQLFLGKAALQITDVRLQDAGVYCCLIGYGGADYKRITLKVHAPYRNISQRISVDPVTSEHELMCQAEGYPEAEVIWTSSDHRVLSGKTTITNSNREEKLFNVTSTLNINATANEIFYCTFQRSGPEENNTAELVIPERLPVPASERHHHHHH

[3] = target: T4, canine PD-L1 (Flag-cPD-L1) expressed on BT549 cells (canine, UniProt E2RKZ5 19-289); assay: blockade of cPD-1-hFc binding to cPD-L1, bound cPD-1 quantified by green fluorescence on IncuCyte S3 (FIG. 5E)
T4 construct: Flag-tagged (pGIPZ-shPD-L1/Flag-cPD-L1); Endogenous human PD-L1 was knocked down in the BT549 cells; also called membrane-localized cPD-L1 protein; BT549^cPD-L1 cells
T4 sequence: T1 chain
Procedure: (§2) To measure PD-1 protein on the cells. […] cells were seeded per well in 96-well plates. The plates were then incubated with cIgG control (Rockland Immunochemicals. Pottstown, PA). 12C10E4 antibody or cPD-L1 A12C10E4 antibody, cPD-1-hFc protein (human Fc protein conjugated: Sino Biological US. Wayne. PA), and/or anti-human Alexa Fluor 488 dye conjugate (ThermoFisher Scientific. Waltham. MA). Every 3 hours green fluorescent signal was measured and quantified by IncuCyte S3 (Sartorius. Goettingen. Germany) (FIG. 5B). The image analysis was performed according to the manufacturer's protocol.

[4] = target: T3, His-tagged canine PD-L1 protein (6X His …); assay: Octet BLI (RED384): His-tagged cPD-L1 loaded on an NTA biosensor at 200 nM, antibody at 50, 100, 200 nmol/L
Procedure: The binding affinity (KD) of the chimeric cPD-L1/cPD-L1 antibody (12C10E4) for canine PD-L1 was determined by Octet Biolayer interferometry (BLI) using the Octet RED384 system (Sartorius. Bohemia. NY). Briefly. His-tagged cPD-L1 protein was loaded on the Octet NTA biosensor at a concentration of 200 nM. The association step was performed by submerging the sensors in three concentrations of the chimeric cPD-L1/cPD-L1 antibody (12C10E4) (50, 100, 200 nmol/L) in the kinetic buffer. Dissociation was performed and monitored in fresh kinetic buffer. Data were analyzed with Octet Analysis HT software (Sartorius. Bohemia. NY), […].

[5] = target: T5, His-tagged mouse PD-L1 protein (mouse, UniProt Q9EP73 19-238, limits assumed); assay: plate assay: His-tagged PD-L1 on Ni-NTA 96-well plate, antibody, HRP anti-canine IgG secondary, OD450
T5 construct: also called mPD-L1-His; mPD-L1; not shown: His tag
T5 sequence (Q9EP73 19-238 limits assumed): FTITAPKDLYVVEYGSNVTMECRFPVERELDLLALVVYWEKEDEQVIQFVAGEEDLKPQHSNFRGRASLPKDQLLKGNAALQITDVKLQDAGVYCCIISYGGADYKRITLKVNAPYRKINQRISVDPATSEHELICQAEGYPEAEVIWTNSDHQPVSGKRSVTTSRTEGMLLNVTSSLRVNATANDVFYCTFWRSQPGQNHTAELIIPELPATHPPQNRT
Procedure: 12C and 3C. with human PD-L1 (hPD-L1), mPD-L1, and cPD-L1 proteins. His-tagged human PD-L1, mPD-L1, or cPD-L1 protein was immobilized on the Ni-NTA 96-well plate, and anti-cPD-L1 Abs. 12C or 3C. with HRP-conjugated anti-canine IgG-specific secondary was added. OD450 was measured to quantify the amount of bound PD-L1 antibodies (Ab=antibody).

[6] = target: T4, canine PD-L1 (Flag-cPD-L1) expressed on …; assay: cPD-1/cPD-L1 blockade assay on BT549^cPD-L1 cells; blocked ligand cPD-1-hFc; green fluorescence by IncuCyte S3
Procedure: as §2

[7] = target: T3, His-tagged canine PD-L1 protein (6X His …); assay: cell-free blockade assay: canine PD-L1-His on Ni-NTA plate; blocked ligand PD-1-Fc (cPD-1-hFc), HRP anti-human IgG Fc secondary, OD450
Procedure: For the […] assays. Pierce Ni-NTA coated 96-well plates (ThermoFisher Scientific. Waltham. MA) were coated with canine PD-L1-His proteins and PD-1-Fc proteins (human Fc-protein conjugated) (SinoBiological US. Wayne. PA), and anti-human IgG Fc specific horseradish peroxidase (HRP)-conjugated secondary antibodies (SouthernBiotech. Birmingham. AL) were added, followed by the addition of anti-canine PD-L1, 12C10E4 or cPD-L1 A12C10E4 antibodies. The bound PD-1-Fc protein was quantified by measuring OD450 value with a Synergy LX multi-mode reader.

[8] = target: T5, His-tagged mouse PD-L1 protein; assay: blocking plate assay: mPD-L1-His on Ni-NTA plate, cPD-1-hFc or mPD-1-hFc, HRP anti-human IgG Fc secondary; 12C concentration not given
Procedure: (§3) Histidine (His)-tagged canine or mPD-L1 protein was immobilized on the nickel-nitriloacetic acid (Ni-NTA) 96-well plate and horseradish peroxidase (HRP)-conjugated anti-human IgG Fc-specific secondary with mPD-1-hFc or cPD-1-hFc protein was added. OD450 was measured to quantify the amount of bound PD-1 protein.

[9] = target: T5, His-tagged mouse PD-L1 protein; assay: plate assay: His-tagged PD-L1 on Ni-NTA 96-well plate, PD-1-hFc, HRP anti-human IgG Fc secondary, OD450 given as fold ratio
Procedure: as §3

B1: cPD-L1 12C10E4 chimeric antibody (mouse variable domains, canine IgG2 / canine kappa constant domains) (antibody)
heavy: QVQLKQSGPGLVQPSQSLSITCTISGFSLTSFGVHWVRQSPGKGLEWLGVIWSGGSTDYNAAFTSRLSINKDNSKSQVFFKMNSLQADDTAIYYCARGGGPDWYFDVWGTGTTVTVSSASTTAPSVFPLAPSCGSTSGSTVALACLVSGYFPEPVTVSWNSGSLTSGVHTFPSVLQSSGLYSLSSMVTVPSSRWPSETFTCNVAHPASKTKVDKPVPKRENGRVPRPPDCPKCPAPEMLGGPSVFIFPPKPKDTLLIARTPEVTCVVVDLDPEDPEVQISWFVDGKQMQTAKTQPREEQFNGTYRVVSVLPIGHQDWLKGKQFTCKVNNKALPSPIERTISKARGQAHQPSVYVLPPSREELSKNTVSLTCLIKDFFPPDIDVEWQSNGQQEPESKYRTTPPQLDEDGSYFLYSKLSVDKSRWQRGDTFICAVMHEALHNHYTQKSLSHSPGK
light: DIVLTQSPASLAVSLGQRATISCRASESVEYYGTSLMQWYQQKPGQPPKLLIFAASNVKSGVPARFSGSGSGTDFSLNIHPVEEDDIAMYFCQQSGKVPHTFGGGTKLEIKRSMEIKRTDAQPAVYLFQPSPDQLHTGSASVVCLLNSFYPKDINVKWKVDGVIQDTGIQESVTEQDKDSTYSLSSTLTMSSTEYLSHELYSCEITHKSLPSTLIKSFQRSECQRVD
notes: Expressed in ExpiCHO-S cells from pTRIOZ-cIgG2-12C10E4; also called 12C chimeric antibody; mAb 12C
binding result [1]: binds
binding result (mPD-L1 on MB49 cells): no binding
EC50 (read off the curve) [2]: ~0.2 mg/L
EC50 [3]: 0.419 mg/L
Kd [4]: 8.6 nM
binding result [5]: no binding
IC50 (read off the curve) [6]: ~0.06 mg/L
IC50 (read off the curve) [7]: ~0.05 mg/L

B2: cPD-L1 A12C10E4 chimeric antibody (antibody)
heavy: B1 heavy
light: DIVLTQSPASLAVSLGQRATISCRASESVEYYGTSLMQWYQQKPGQPPKLLIFAASNVKSGVPARFSGSGSGTDFSLNIHPVEEDDIAMYFCQQSGKVPHTFGGGTKLEIKRSMADAQPAVYLFQPSPDQLHTGSASVVCLLNSFYPKDINVKWKVDGVIQDTGIQESVTEQDKDSTYSLSSTLTMSSTEYLSHELYSCEITHKSLPSTLIKSFQRSECQRVD
notes: also called mAb A12C; cPD-L1 A12C10E4 cIgG
EC50 (read off the curve) [2]: ~0.2 mg/L
IC50 (read off the curve) [7]: ~0.05 mg/L

B3: cPD-L1 3C chimeric antibody clone (3C8D3 variable domains, canine constant domains) (antibody, V domains shown)
VH: EVQLQQSGPELVKPGASVKMSCKASGYTFTDYVLHWVRQTNGKSLEWIGEINPSNGDTYYNQKFKGKATLTVDTSSSTAYMQLTTLTSEDSAVYYCARSDYSNYVGFAYWGQGTLVTVSA
VL: DIVMTQSHKFMSTSVGDRVSITCKVSQDVGTAVAWYQQKPGQCPKRLIYWTSTRHTGVPDRFTGSGSGTDFTLTISNVQSEDLVDYFCQQYSSYPLTFGGGTKLELKR
notes: also called cPD-L1 3C8D3
binding result [5]: no binding

B4: murine monoclonal antibody cPD-L1 12C10E4 from the hybridoma (antibody, mouse IgG1, V domains shown)
VH: QVQLKQSGPGLVQPSQSLSITCTISGFSLTSFGVHWVRQSPGKGLEWLGVIWSGGSTDYNAAFTSRLSINKDNSKSQVFFKMNSLQADDTAIYYCARGGGPDWYFDVWGTGTTVTVSS
VL: DIVLTQSPASLAVSLGQRATISCRASESVEYYGTSLMQWYQQKPGQPPKLLIFAASNVKSGVPARFSGSGSGTDFSLNIHPVEEDDIAMYFCQQSGKVPHTFGGGTKLEIK
notes: Hybridoma antibody from A/J mice immunized with the cPD-L1 extracellular domain-human Fc; also called mAb 12C; murine 12C antibody
binding result [8]: no binding

B5: mPD-1-hFc protein (Fc fusion, mouse, UniProt Q02242 25-167, looked up)
chain: LEVPNGPWRSLTFYPAWLTVSEGANATFTCSLSNWSEDLMLNWNRLSPSNQTEKQAAFCNGLSQPVQDARFQIIQLPNRHDFHMNILDTRRNDSGIYLCGAISLHPKAKIEESPGAELVVTERILETSTRYPSPSPKPEGRFQ
notes: also called mouse PD-1; not shown: human Fc
binding result [9]: binds
